The target of one experiment is MMP-9 (Homo sapiens, UniProt P14780). In words: Solid phase binding assay of synthetic peptides to MMP-9. Conditions: solid phase binding assays, FIG. 7. The procedure:
For example, synthetic peptides were generated and analyzed for binding activity to MMP-9. The binding ability of the peptides was analyzed by solid phase binding assays.

Experiment [1] concerns angiogenesis on the CAMs of chick embryos. The experiment is described as follows: Chick embryo CAM angiogenesis assay (bFGF-induced). Conditions: 10 day old chick embryos, single IV injection 100 μg 24 h later, counted three days later, FIG. 8B. It counts as in vivo. An excerpt:
For example, one assay measures angiogenesis in the chick chorioallantoic membrane (CAM) and is referred to as the CAM assay. The CAM assay has been described in detail by others, and further has been used to measure both angiogenesis and neovascularization of tumor tissues. See Ausprunk et al., Am. J. Pathol., 79:597-618 (1975) and Ossonski et al., Cancer Res., 40:2300-2309 (1980).
Angiogenesis was induced on the CAMs of 10 day old chick embryos with bFGF. Twenty-four hours later the embryos received a single IV injection with 100 μg of FRIP-1 or AAA control peptide. Three days later angiogenesis was quantified by counting the number of blood vessel branch points within the area of the filter disc. […] FIG. 8B is a quantification of the angiogenesis experiments. […] In FIG. 8B, NT corresponds to No bFGF, FRIP-1 to bFGF+FRIP-1 peptide, and AAA to bFGF+control AAA peptide. Data bars represent the mean±standard errors of 5 to 10 embryos per condition.

Entries after “also recorded” stand apart in the source; their conditions may differ. Where no end group is shown, it is not given here.

MMP-9, sequence (P14780 94-707): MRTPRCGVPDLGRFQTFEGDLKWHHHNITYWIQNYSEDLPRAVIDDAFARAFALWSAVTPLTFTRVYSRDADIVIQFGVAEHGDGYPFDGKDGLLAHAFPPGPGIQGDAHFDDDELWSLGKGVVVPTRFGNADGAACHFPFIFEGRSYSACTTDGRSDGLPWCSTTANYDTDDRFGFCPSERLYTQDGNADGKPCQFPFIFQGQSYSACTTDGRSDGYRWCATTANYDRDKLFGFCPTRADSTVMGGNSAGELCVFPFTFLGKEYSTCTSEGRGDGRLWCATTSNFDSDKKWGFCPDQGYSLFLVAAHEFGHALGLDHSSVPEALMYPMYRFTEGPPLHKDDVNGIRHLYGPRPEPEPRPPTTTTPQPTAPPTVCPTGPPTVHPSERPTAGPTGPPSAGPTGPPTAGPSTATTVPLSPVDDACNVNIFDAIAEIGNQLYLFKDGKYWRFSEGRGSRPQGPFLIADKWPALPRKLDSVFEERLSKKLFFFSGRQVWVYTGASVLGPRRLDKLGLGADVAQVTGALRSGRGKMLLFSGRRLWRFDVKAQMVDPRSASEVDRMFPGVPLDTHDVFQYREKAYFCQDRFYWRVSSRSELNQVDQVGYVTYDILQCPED

In the case of “CRAAAAEPQC (cysteine pairing not given here) [control peptide, reference compound]”, the “binding to MMP-9” value with MMP-9 is reported as “binds with substantially reduced affinity”.
In the case of “CRLRSGEPQC (cysteine pairing not given here) [synthetic peptide derived from the C-terminal hemopexin-like domain of human MMP-9]”, the “binding to MMP-9” value with MMP-9 is given as “specifically bind to MMP-9; also recorded: binds to MMP-9”. In addition, the “angiogenesis (number of blood vessel branch points within the area of the filter disc)” value in experiment [1] is “blocks angiogenesis; also recorded: inhibit angiogenesis”.
As for “CRAAAGEPQC (cysteine pairing not given here) [control peptide identical to FRIP-1 except that 3 key amino acids were changed, reference compound]”, in the experiment with MMP-9, the “binding to MMP-9” value is listed as “little in any binding ability”.
